Measured values: paper PMC10090947

Legend:
[1] = molecular target: nonreceptor tyrosine phosphatase 14 (PTPN14), endogenous (UniProt Q15678); test: streptavidin affinity purification and MS (MS1 intensity); conditions: three independent biological replicates; parent: est. -0.1; read off a plot
[2] = molecular target: Large tumor suppressor 1 (LATS1), endogenous (UniProt O95835); test: as above; conditions: three independent biological replicates; parent: est. -0.1; read off a plot
CCDC85C = CCDC85C (UniProt A6NKD9); test: AP-MS (MS1 intensity); conditions: parent: est. 32; read off a plot
Sequence of UniProt A6NKD9 (A6NKD9 whole entry): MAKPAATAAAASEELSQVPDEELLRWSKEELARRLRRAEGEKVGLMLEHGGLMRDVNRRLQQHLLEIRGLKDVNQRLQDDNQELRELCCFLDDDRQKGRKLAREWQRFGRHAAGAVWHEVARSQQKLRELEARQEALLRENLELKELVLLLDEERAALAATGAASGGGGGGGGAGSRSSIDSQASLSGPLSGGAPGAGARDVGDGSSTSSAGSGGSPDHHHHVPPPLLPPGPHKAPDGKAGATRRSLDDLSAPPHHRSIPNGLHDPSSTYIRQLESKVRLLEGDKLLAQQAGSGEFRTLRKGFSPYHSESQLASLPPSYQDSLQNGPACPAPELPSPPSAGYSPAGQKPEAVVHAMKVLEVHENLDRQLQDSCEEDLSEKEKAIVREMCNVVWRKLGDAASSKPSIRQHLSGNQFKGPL

TP53BP2 = TP53BP2 (UniProt Q13625); test: AP-MS (MS1 intensity); conditions: parent: est. 33; read off a plot
Sequence of UniProt Q13625 (Q13625 whole entry): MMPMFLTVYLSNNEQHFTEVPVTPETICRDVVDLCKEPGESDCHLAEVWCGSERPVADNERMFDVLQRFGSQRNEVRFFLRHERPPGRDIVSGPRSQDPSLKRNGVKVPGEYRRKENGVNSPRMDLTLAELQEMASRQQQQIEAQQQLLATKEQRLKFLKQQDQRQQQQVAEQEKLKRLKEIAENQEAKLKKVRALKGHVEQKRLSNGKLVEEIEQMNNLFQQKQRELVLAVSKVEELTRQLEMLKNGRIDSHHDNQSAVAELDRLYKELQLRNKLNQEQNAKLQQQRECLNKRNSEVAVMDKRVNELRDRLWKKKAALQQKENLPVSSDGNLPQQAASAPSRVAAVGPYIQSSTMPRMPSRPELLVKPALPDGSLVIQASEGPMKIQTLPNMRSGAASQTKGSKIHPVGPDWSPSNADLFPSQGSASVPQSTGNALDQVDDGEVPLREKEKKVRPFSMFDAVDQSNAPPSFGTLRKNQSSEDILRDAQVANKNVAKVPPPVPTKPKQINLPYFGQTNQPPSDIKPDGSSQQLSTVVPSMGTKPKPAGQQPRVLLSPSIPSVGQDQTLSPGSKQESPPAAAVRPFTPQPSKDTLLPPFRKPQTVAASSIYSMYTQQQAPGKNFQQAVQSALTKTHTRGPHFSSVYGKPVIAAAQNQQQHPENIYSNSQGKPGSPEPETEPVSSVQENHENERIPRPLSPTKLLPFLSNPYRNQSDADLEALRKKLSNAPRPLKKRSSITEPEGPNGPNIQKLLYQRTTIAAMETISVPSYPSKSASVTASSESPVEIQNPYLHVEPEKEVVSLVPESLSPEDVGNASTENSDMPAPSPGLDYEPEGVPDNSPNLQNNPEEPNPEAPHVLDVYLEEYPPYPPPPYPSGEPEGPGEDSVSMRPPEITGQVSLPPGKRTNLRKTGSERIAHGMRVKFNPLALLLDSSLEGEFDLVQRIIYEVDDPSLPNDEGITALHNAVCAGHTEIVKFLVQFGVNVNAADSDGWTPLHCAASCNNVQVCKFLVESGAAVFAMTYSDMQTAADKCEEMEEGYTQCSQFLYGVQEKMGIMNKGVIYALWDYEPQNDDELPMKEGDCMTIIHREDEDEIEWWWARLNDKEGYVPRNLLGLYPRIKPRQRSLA

AMOTL1 = AMOTL1 (UniProt Q8IY63); test: AP-MS (MS1 intensity); conditions: parent: est. 34; read off a plot
Sequence of UniProt Q8IY63 (Q8IY63 whole entry): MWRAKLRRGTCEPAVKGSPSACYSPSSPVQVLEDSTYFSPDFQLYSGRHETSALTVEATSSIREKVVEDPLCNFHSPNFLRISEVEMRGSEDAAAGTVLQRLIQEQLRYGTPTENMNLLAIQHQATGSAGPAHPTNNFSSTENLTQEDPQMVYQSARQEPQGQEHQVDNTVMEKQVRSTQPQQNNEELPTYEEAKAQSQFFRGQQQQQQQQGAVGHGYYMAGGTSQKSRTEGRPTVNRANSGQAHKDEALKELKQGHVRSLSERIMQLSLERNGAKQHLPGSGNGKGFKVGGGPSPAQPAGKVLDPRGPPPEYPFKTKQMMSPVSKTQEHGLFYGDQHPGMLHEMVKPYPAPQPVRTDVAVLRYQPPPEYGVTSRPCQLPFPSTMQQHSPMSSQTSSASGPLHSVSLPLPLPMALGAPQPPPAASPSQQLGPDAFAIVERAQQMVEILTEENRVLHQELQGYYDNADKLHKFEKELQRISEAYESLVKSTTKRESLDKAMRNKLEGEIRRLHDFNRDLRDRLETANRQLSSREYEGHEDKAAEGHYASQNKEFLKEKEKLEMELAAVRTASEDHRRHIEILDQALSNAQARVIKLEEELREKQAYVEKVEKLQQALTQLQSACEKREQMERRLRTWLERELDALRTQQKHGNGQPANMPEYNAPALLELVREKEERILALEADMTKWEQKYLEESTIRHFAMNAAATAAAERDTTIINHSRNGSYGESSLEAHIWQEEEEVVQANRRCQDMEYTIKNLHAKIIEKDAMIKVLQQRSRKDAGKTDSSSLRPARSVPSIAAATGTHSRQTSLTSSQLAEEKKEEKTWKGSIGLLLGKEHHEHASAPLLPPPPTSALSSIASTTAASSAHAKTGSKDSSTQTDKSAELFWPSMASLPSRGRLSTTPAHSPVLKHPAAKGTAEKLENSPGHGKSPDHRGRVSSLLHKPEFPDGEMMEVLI

[3] = molecular target: nonreceptor tyrosine phosphatase 14 (PTPN14), endogenous (UniProt Q15678); test: Strep AP-MS; conditions: three biological replicates; parent: est. 0.0; read off a plot
[4] = molecular target: Large tumor suppressor 1 (LATS1), endogenous (UniProt O95835); test: Strep AP-MS; conditions: three biological replicates; parent: est. 0.0; read off a plot

Sequence of UniProt O95835 (O95835 whole entry): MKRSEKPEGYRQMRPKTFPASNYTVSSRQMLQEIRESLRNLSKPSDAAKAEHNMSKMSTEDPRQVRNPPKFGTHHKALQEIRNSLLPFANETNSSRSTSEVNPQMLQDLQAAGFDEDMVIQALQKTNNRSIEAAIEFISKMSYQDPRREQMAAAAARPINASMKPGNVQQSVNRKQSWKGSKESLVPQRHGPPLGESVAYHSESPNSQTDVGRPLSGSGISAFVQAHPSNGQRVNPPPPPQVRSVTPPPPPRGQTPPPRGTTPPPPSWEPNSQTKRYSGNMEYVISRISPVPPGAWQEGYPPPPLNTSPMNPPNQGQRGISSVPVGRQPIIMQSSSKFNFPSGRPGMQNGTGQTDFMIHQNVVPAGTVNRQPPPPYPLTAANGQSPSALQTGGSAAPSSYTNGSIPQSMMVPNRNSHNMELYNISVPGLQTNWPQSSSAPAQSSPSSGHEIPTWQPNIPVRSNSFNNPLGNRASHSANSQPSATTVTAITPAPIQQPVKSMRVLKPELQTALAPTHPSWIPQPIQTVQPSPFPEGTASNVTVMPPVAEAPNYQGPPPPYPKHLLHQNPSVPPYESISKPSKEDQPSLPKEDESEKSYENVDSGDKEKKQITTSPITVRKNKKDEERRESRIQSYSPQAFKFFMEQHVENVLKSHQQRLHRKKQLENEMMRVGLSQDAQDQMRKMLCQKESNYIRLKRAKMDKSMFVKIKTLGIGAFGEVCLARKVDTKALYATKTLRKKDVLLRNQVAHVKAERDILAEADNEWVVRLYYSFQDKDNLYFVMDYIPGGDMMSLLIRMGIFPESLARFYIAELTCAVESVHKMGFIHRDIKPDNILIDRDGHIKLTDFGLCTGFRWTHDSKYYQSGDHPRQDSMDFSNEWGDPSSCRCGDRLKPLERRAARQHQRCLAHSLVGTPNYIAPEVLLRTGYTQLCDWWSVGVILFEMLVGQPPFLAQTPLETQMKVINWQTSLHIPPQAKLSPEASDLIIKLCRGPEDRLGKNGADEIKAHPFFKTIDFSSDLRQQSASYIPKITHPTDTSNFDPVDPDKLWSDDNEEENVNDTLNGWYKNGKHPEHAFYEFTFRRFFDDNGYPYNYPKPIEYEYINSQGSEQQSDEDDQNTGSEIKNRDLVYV
Sequence of UniProt Q15678 (Q15678 whole entry): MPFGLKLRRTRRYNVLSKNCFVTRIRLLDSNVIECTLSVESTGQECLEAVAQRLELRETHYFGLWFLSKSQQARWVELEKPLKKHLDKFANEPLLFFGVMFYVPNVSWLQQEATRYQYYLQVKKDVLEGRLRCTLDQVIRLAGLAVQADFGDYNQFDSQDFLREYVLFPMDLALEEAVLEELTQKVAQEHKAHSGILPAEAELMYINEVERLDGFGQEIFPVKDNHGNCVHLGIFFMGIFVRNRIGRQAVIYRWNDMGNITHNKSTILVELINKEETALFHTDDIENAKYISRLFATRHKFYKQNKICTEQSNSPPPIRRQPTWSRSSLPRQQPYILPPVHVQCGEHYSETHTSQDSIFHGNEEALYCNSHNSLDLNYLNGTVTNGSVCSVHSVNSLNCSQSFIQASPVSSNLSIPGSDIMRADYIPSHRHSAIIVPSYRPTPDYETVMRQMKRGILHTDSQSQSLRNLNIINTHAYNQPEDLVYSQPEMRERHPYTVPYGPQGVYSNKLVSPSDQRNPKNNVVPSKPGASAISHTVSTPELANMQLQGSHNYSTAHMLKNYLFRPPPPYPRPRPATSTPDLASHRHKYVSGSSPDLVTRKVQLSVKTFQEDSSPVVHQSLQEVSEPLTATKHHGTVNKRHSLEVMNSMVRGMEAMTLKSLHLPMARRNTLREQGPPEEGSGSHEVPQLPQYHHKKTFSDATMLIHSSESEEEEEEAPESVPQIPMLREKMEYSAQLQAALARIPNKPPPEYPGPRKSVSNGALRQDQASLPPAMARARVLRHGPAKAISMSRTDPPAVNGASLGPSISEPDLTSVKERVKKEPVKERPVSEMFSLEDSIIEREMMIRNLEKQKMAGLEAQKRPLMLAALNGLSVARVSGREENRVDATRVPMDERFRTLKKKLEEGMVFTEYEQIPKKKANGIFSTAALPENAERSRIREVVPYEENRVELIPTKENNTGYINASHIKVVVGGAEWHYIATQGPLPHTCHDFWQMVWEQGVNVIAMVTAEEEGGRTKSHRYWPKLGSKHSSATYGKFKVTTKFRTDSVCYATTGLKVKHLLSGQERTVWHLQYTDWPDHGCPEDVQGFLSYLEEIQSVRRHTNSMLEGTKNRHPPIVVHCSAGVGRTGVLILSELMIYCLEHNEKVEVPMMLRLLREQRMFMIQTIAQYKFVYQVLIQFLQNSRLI

Substance | other: log2(mutant vs WT) [1] | other: log2(mutant vs WT) [2] | response (log2(Intensity)) (CCDC85C) | response (log2(Intensity)) (TP53BP2) | response (log2(Intensity)) (AMOTL1) | other: log2(mutant vs WT) [3] | other: log2(mutant vs WT) [4]
Strep‐HA YAP1 (wild type) ΔWW1 | -3.4 | -7.2 |  |  |  | -3.4 | -7.2
Strep‐HA YAP1 (wild type) ΔWW1/2 | -9.2 | -7 |  |  |  | -9.2 | -7
Strep‐HA YAP1 (wild type) ΔWW2 | -7.7 | -3.6 |  |  |  | -7.7 | -3.6

The next lines start with the values.

other: log2(mutant vs WT) [1] | other: log2(mutant vs WT) [2] | response (log2(Intensity)) (CCDC85C) | response (log2(Intensity)) (TP53BP2) | response (log2(Intensity)) (AMOTL1) | other: log2(mutant vs WT) [3] | other: log2(mutant vs WT) [4] | Substance
0 | -0.6 |  |  |  |  |  | Strep‐HA YAP1 (wild type) 5SA
 |  | 28 | 30 | 34 |  |  | Strep‐HA YAP1 (wild type) S367A
